Usually Kd stands for the constant that tells how readily two partners part at equilibrium. The koff is the rate constant with which the complex falls apart. The term kon denotes a measure of how fast the partners come together. Broadly, the EC50 is the concentration that produces a half-maximal response. The IC50 is the concentration that inhibits the measured activity by half.

Assay [1] has as its target T1, Fusion protein of extracellular domain of human TIGIT and His-tag (human TIGIT ECD-his) (human).
T1 chain: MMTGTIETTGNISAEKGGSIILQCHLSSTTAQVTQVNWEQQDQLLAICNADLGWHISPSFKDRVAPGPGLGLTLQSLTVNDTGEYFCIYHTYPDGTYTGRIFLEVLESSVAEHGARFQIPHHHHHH
The assay is described as follows: BIAcore. (In general: Surface plasmon resonance follows binding to a sensor surface in real time, without labels.)

In assay [2] the target is T2, Full-length human TIGIT on CHO-K1 cells (CHO-K1 human TIGIT) (human, UniProt Q495A1 22-244).
T2 construct: NCBI XP_024309156.1; the entry includes the signal peptide (limits not recoverable); The strain (high, medium, low) is named under assay; also called high expression strain 1D2; medium expression strain 2D10
T2 sequence: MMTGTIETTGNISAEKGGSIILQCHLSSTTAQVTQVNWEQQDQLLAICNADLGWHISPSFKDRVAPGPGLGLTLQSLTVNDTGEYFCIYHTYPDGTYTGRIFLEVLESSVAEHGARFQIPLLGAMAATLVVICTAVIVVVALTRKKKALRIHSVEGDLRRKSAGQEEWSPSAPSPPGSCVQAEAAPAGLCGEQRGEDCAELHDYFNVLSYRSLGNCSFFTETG
Put plainly: cell binding, CHO-K1 human TIGIT high expression strain. The method, then: (§1) The collected cells were washed once with PBS (Hyclone, CAT #SH30256), resuspended to 2×10⁵/50 μL with 1% BSA-PBS. The antibodies were diluted to 80 nM with 1% BSA-PBS (diluted by 3-fold serial dilution for 12 concentration points). The 50 μL cells were then mixed with 50 μL diluted antibodies, and then incubated at 4° C. for 60 minutes. […] After washing twice with PBS, the cell samples were resuspended with 1% BSA-PBS, 100 μL/well and then analyzed by flow cytometry (BD, Canto II). […] [0298] (c) The effect of anti-TIGIT chimeric antibodies blocking the interaction between Bio-CD155-His and CHO-K1 human TIGIT high expression cell strains detected by FACS
(§2) The affinity of the above humanized antibodies with human TIGIT ECD-His is detected by BIAcore, and with reference to the methods of Example 4 (a), (b), and (d), the binding activity of the above humanized antibodies to human TIGIT ECD-mFc, CHO-K1 human TIGIT, CHO-K1 cynomolgus monkey TIGIT and cynomolgus monkey TIGIT ECD-mFc, and the effect of the humanized antibodies blocking the binding between human TIGIT ECD-mFc and CHO-K1 CD155 are detected, the results are shown in Table 18.

In assay [3] the target is T3, Fusion protein of extracellular domain of cynomolgus monkey TIGIT and mouse IgG2a Fc fragment (cynomolgus … (cynomolgus monkey)).
T3 construct: The entry includes the signal peptide (limits not recoverable) and the mouse IgG2a Fc
The assay is described as follows: ELISA, cynomolgus monkey TIGIT ECD-mFc. The method, then:
(§3) After discarding the coating solution, the plate was added with 5% skim milk powder (Sangon Biotech, CAT #A600669-0250)-PBS, 250 μL/well, and incubated at 37° C. for 2-4 hours. […] The enzyme-labeled plate was then washed with 0.05% Tween 20-PBS for 3 times on the Microplate Washer, added with tested antibodies diluted to 13 nM with 1% BSA (diluted by 3-fold serial dilution for 12 concentration points), 50 μL/well, and incubated at 37° C. for 1.5-2 hours. The plate was washed with 0.05% Tween 20-PBS for 3 times on the Microplate Washer, then added with HRP enzyme-labeled antibodies (Merck, CAT #AP113P) diluted with 1% BSA (Sangon Biotech, CAT #A500023-0100)-PBS at a dilution ratio of 1:5000, 50 μL/well, and incubated at 37° C. for 1 hour. After washing 3 times with 0.05% Tween 20-PBS on the Microplate Washer, the plate was added with TMB chromogenic solution (KPL, CAT #52-00-03), 50 μL/well, and incubated at room temperature for 7-10 minutes. 1M HCL, 50 μL/well, was then added into the plate to terminate the reaction, and the OD450 nm was read by a microplate reader (Biotek, Powerwave HT). […] (b) The binding activity of anti-TIGIT chimeric antibodies to CHO-K1 human TIGIT (cells with high, medium and low expression levels) and CHO-KI cynomolgus monkey TIGIT detected by FACS.
as §2
In general terms: ELISA stands for enzyme-linked immunosorbent assay.

For assay [4], the target named is T1, Fusion protein of extracellular domain …. The assay is described as follows: BIAcore; KD ratio to TIGIT-CHI-006.
Assay [5] deals with T4, Fusion protein of extracellular domain of human TIGIT and human IgG1 Fc fragment (human TIGIT ECD-hFc) (human).
T4 construct: The entry includes the signal peptide (limits not recoverable) and the human IgG1 Fc
T4 sequence (chain, as listed by the source limits assumed): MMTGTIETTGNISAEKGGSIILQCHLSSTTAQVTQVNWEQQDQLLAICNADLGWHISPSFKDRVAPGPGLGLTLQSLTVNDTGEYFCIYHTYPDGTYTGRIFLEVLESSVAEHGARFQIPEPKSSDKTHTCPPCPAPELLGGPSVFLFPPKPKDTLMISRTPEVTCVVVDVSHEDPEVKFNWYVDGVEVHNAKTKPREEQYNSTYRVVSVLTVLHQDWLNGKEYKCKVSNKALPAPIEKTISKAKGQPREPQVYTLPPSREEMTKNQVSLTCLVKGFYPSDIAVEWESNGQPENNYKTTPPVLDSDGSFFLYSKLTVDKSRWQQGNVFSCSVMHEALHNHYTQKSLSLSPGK
The assay is described as follows: blocking of TIGIT ECD-hFc binding to CHO-K1 CD155 cells. The method, boiled down: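 Cell-based ELISA on CHO-K1 CD155 cells, cultured overnight, fixed and blocked with 5% skim milk-PBS. Antibodies were premixed for 0.5 h with human TIGIT ECD-hFc (working concentration 30 ng/mL), then added and held at 37° C for 1.5-2 h. Bound TIGIT was detected with HRP secondary antibody (1:5000, 37° C, 1 h) and TMB, read as OD450 nm. IC50 came from the inhibition curves.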

Assay [6] has as its target T5, Fusion protein of extracellular domain of human TIGIT and mouse IgG2a Fc fragment (human TIGIT ECD-mFc) (human).
T5 construct: The entry includes the signal peptide (limits not recoverable) and the mouse IgG2a Fc
T5 chain: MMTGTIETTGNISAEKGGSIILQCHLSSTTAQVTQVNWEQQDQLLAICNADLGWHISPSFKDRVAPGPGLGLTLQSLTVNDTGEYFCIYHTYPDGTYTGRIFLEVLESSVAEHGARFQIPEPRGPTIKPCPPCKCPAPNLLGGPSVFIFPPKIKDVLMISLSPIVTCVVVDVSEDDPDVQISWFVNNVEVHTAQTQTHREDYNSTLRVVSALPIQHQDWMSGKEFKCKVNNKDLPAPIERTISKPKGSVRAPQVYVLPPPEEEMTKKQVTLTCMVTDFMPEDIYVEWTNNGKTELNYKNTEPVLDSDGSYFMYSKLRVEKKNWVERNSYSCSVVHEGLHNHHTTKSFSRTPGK
Put plainly: ELISA, human TIGIT ECD-mFc. The method, then: as §3, §2

Assay [7] deals with T6, Full-length cynomolgus monkey TIGIT on CHO-K1 cells (CHO-K1 cynomolgus monkey TIGIT) (cynomolgus monkey).
T6 construct: NCBI XP_015300911.1
T6 sequence (chain, as listed by the source limits assumed): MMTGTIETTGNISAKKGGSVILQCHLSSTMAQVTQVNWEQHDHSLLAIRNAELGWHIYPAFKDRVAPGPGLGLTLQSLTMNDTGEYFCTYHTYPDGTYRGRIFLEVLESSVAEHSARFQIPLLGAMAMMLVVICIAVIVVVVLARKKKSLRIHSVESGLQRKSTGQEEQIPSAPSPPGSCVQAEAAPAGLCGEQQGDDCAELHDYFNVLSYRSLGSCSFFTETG
Put plainly: cell binding, CHO-K1 cynomolgus monkey TIGIT. The method, then: as §1, §2

Changes are numbered by the printed parent chain.

B1: TIGIT-006-H3L1 (antibody, V domains shown)
VH: EVQLQESGPGLVKPSETLSLTCAVSGYSMTSDYWNWIRQPPGKKLEWIGYISYSGRTYYNPSLKSRVTISRDTSKNQFSLKLSSVTAADTAVYYCARGDYSNYGGAMYDWGQGTTVTVSS
VL: DIVMTQTPLSLSVTPGQPASISCRASQGVSTTIAWYLQKPGQSPQLLIYSASYRYTGVPDRFSGSGSGTDFTLKISRVEAEDVGVYYCQQYYSSPFTFGGGTKVEIK
notes: Humanized anti-TIGIT antibody
In turn, B1 showed a Kd in assay [1] of 0.705 nM. The same molecule returned a koff in assay [1] of 0.000241 s⁻¹. Besides, the kon in assay [1] worked out at 342000 M⁻¹ s⁻¹. For the same molecule, the EC50 amounted to 0.0468 nM in assay [2], 2.81 nM in assay [3] and 0.0096 nM in assay [6]. Further, in assay [4], the “Fold change vs chimeric antibodies (KD)” value is 9.11 fold. Besides, the half-inhibitory concentration (IC50) in assay [5] is 0.637 nM.

B2: TIGIT-006-H1L1 (antibody, V domains shown)
VH: B1 VH with M29I, K44G
VL: B1 VL
notes: Humanized anti-TIGIT antibody
In the case of B2, the binding result in assay [7] was “no binding”. In assay [1], this molecule gave a Kd of 6.21 nM, a koff of 0.000757 s⁻¹ and a kon of 122000 M⁻¹ s⁻¹. For the same molecule, in assay [2], the EC50 came to 0.0702 nM. Also, the binding result in assay [3] is “no binding”. Also, the “Fold change vs chimeric antibodies (KD)” value in assay [4] is 80.3 fold. Besides, the IC50 in assay [5] worked out at 1.53 nM. Moreover, in assay [6], the EC50 was 0.0186 nM.

B3: TIGIT-006-H5L1 (antibody, V domains shown)
VH: B1 VH with W47Y
VL: B1 VL
notes: Humanized anti-TIGIT antibody
B3: the EC50 in assay [7] stood at 0.162 nM; in assay [2], 0.0399 nM; in assay [3], 0.0182 nM; in assay [6], 0.0108 nM. For the same molecule, the Kd in assay [1] worked out at 0.0713 nM. The molecule also came in with a koff in assay [1] of 0.000163 s⁻¹. For the same molecule, the on-rate constant (kon) in assay [1] stood at 2.29e+06 M⁻¹ s⁻¹. Besides, the “Fold change vs chimeric antibodies (KD)” value in assay [4] was 0.92 fold. The molecule also had a half-inhibitory concentration (IC50) in assay [5] of 0.537 nM.

B4: TIGIT-006-H4L1 (antibody, V domains shown)
VH: B1 VH with I48M, V67I
VL: B1 VL
notes: Humanized anti-TIGIT antibody
B4: in assay [1], the affinity, expressed as Kd, was 0.657 nM. Also, the koff in assay [1] came out at 0.000258 s⁻¹. Also, the association rate constant (kon) in assay [1] was 393000 M⁻¹ s⁻¹. In addition, the EC50 turned out to be 0.0349 nM in assay [2], 1.53 nM in assay [3] and 0.0086 nM in assay [6]. The “Fold change vs chimeric antibodies (KD)” value in assay [4] was 8.49 fold. Further, in assay [5], the half-inhibitory concentration (IC50) was found to be 0.704 nM.

B5: TIGIT-006-H1L2 (antibody, V domains shown)
VH: B1 VH with M29I, K44G
VL: B1 VL with L37Q, Q45K
notes: Humanized anti-TIGIT antibody
As for B5, in assay [7], the binding result is “no binding”. Besides, in assay [1], the affinity, expressed as Kd, was 5.71 nM; the koff is 0.000666 s⁻¹; the kon came out at 117000 M⁻¹ s⁻¹. In addition, the EC50 in assay [2] was found to be 0.105 nM. In assay [3], the binding result is “no binding”. In addition, the “Fold change vs chimeric antibodies (KD)” value in assay [4] worked out at 73.8 fold. In assay [5], this molecule returned an IC50 of 1.58 nM. This molecule also yielded an EC50 in assay [6] of 0.0183 nM.

B6: TIGIT-006-H2L1 (antibody, V domains shown)
VH: B1 VH with K44G
VL: B1 VL
notes: Humanized anti-TIGIT antibody
In the case of B6, the EC50 in assay [7] is 0.342 nM; in assay [2], 0.0383 nM; in assay [3] it was 2.88 nM; in assay [6] it was 0.0106 nM. Further, in assay [1], binding was characterised by a dissociation constant (Kd) of 0.95 nM. The molecule further registered a koff in assay [1] of 0.000382 s⁻¹. Besides, in assay [1], the kon was 403000 M⁻¹ s⁻¹. The “Fold change vs chimeric antibodies (KD)” value in assay [4] is 12.3 fold. Besides, the 50% inhibitory concentration (IC50) in assay [5] turned out to be 0.528 nM.

B7: TIGIT-006-H4L2 (antibody, V domains shown)
VH: B1 VH with I48M, V67I
VL: B1 VL with L37Q, Q45K
notes: Humanized anti-TIGIT antibody
In assay [1], B7 returned a Kd of 0.658 nM, a koff of 0.000221 s⁻¹ and an association rate constant (kon) of 337000 M⁻¹ s⁻¹. This molecule also registered an EC50 in assay [2] of 0.0251 nM. Besides, the EC50 in assay [3] was 0.997 nM. In addition, in assay [4], the “Fold change vs chimeric antibodies (KD)” value turned out to be 8.5 fold. For the same molecule, the IC50 in assay [5] was 0.671 nM. Besides, in assay [6], a half-maximal response (EC50) required 0.0113 nM.

B8: TIGIT-006-H2L2 (antibody, V domains shown)
VH: B1 VH with K44G
VL: B1 VL with L37Q, Q45K
notes: Humanized anti-TIGIT antibody
For the molecule B8, the affinity in assay [1], expressed as Kd, was 0.893 nM. For the same molecule, in assay [1], the koff stood at 0.000324 s⁻¹. Further, the kon in assay [1] is 363000 M⁻¹ s⁻¹. Further, the results for the EC50 in assay [2], in assay [3] and in assay [6] were 0.0444 nM, 3.38 nM and 0.0117 nM, respectively. For the same molecule, the “Fold change vs chimeric antibodies (KD)” value in assay [4] came out at 11.5 fold. The molecule also yielded an IC50 in assay [5] of 0.904 nM.

B9: TIGIT-006-H3L2 (antibody, V domains shown)
VH: B1 VH
VL: B1 VL with L37Q, Q45K
notes: Humanized anti-TIGIT antibody
Take B9: the EC50 in assay [7] was 1.38 nM; in assay [2] it was 0.0494 nM; in assay [3], 7.44 nM; in assay [6] it was 0.0099 nM. This molecule registered a dissociation constant (Kd) in assay [1] of 0.748 nM. The koff in assay [1] is 0.000208 s⁻¹. The kon in assay [1] came to 279000 M⁻¹ s⁻¹. The “Fold change vs chimeric antibodies (KD)” value in assay [4] is 9.66 fold. The half-maximal inhibitory concentration (IC50) in assay [5] was determined as 0.709 nM.

B10: TIGIT-006-H5L2 (antibody, V domains shown)
VH: B1 VH with W47Y
VL: B1 VL with L37Q, Q45K
notes: Humanized anti-TIGIT antibody
In the case of B10, the EC50 came out at 0.0849 nM in assay [7], 0.0239 nM in assay [2], 0.0172 nM in assay [3] and 0.0111 nM in assay [6]. The Kd in assay [1] was 0.08 nM. Moreover, the koff in assay [1] turned out to be 0.000184 s⁻¹. The molecule also yielded a kon in assay [1] of 2.3e+06 M⁻¹ s⁻¹. In assay [4], the “Fold change vs chimeric antibodies (KD)” value came to 1.03 fold. Besides, in assay [5], the IC50 was found to be 0.576 nM.
